T1: 3′hExofl (human, UniProt Q8IV48 1-349)
T1 construct: human 3′hExo (ERI1), full length; Modified pET28a, N-terminal 6x His-tag followed by an HRV-3C site; also called ERI1; full-length 3′hExo; source: E. coli BL21 Star (DE3) pRARE, purified (Ni-NTA, heparin, SEC)
T1 sequence (looked up): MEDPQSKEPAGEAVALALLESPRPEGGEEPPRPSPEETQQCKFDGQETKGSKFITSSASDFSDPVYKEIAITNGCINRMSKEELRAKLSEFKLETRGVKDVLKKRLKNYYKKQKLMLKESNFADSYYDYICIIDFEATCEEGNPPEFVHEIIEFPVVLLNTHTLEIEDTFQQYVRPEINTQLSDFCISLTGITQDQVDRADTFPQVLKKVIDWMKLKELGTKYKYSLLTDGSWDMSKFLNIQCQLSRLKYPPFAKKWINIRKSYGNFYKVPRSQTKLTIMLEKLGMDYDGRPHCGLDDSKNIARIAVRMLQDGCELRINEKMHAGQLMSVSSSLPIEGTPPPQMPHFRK

T2: 3′hExo as used in surface plasmon resonance (human, UniProt Q8IV48 1-349)
T2 construct: human 3′hExo (ERI1); Likely 3′hExofl
T2 sequence (looked up): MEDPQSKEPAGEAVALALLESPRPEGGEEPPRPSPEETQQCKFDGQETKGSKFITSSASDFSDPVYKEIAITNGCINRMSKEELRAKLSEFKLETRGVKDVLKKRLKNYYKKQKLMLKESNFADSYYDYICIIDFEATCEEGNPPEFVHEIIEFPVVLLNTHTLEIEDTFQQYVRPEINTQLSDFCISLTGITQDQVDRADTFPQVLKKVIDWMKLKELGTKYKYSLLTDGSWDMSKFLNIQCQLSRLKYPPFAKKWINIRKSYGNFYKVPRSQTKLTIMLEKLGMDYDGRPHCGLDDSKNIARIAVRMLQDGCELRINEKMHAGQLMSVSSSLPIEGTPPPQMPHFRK


What was measured:
3′hExofl = target: T1, 3′hExofl; test: NMR titration; 1H-15N HSQC of 15N-labelled UPF2-AL or UPF2-ALm with stepwise addition of unlabelled 3′hExo proteins; 298 K; 20 mM HEPES pH 7.0, 100 mM NaCl, 2 mM DTT; KD from twelve amide peaks, one-to-one binding isotherm; conditions: both partners purified
[1] = target: T2, 3′hExo as used in surface plasmon …; test: SPR; format not told in the text shown; conditions: both partners purified

Kd (3′hExofl)	Kd [1]	Binder
~200 µM	–	UPF2-ALm (residues 1024–1085) (domain or fragment, human, UniProt Q9HAU5 1024-1085, looked up, human UPF2, residues 1024–1085 of the acidic linker; source: E. coli, purified; 15N-labelled) TEGENLEEDEEEEEGGAETEEQSGNESEVNEPEEEEGSDNDDDEGEEEEEENTDYLTDSNKE
–	~170 µM	UPF2 as used in surface plasmon resonance (domain or fragment, not fully specified; numbers in words are those of the source; also: modified acidic linker UPF2-ALm, further changes not given here) KKKTEGENLEEDEEEEEGGAETEEQSGNESEVNEPEEEEGSDNDDDEGEEEEEENTDYLTDSNKE
